Earlier results on one substance are cited in publication PMC8199105.

This series deals with Albumin (UniProt P02768). The series is described as follows: surface plasmon resonance. In general terms: SPR reads the build-up and loss of mass on a sensor chip optically.

What is called Kd is the free concentration of one partner at which half of the binding sites on the other are occupied at equilibrium, for simple one-to-one binding. Consider Cubilin (from UniProt O70244), for which the Kd was 630 nM.
